Assay [1] concerns the target GST fusion of the wild type DEP domain of RGS7 (R7-DEP) (bovine) (UniProt O46470). Description: pull-down.
Assay [2] concerns the target GST-DEP F107A/F110A double mutant (bovine) (UniProt O46470). Kind of assay: pull-down.

“Gβ5 D259A mutant in complex with the RGS7^249-469 construct (from UniProt O46470 249-469)”: in assay [1], the increase of the fraction bound against wild-type Gβ5 turned out to be 10%.

For “Gβ5 F284A mutant in complex with the RGS7^249-469 construct (from UniProt O46470 249-469)”, the fold reduction of binding against wild-type Gβ5 in assay [1] worked out at 5 fold. “complex of wild-type Gβ5 with the RGS7^249-469 construct (from UniProt O46470 249-469)”: the values for the percent bound in assay [1] and in assay [2] were over 50% and 12%, respectively. “Gβ5 I282A/I283A double mutant in complex with the RGS7^249-469 construct (from UniProt O46470 249-469)” had a fold reduction of binding against wild-type Gβ5 in assay [1] of 5 fold.

(Values after article PMC2920065.)
